Measurements published in article PMC3605701.
Like-named read-outs stand apart in the source and are kept apart here.

Columns and labels:
Assay in all cases: SEC
[1] = biological target: endogenous Xenopus Cdt1/RLF-B (Xenopus (endogenous in egg extract)) (UniProt Q9I9A7)
[2] = biological target: endogenous Xenopus Cdt1/RLF-B (Xenopus (endogenous in egg extract)) (UniProt Q9I9A7); remark: listed apart in the source
[3] = biological target: endogenous Xenopus Cdt1/RLF-B (Xenopus (endogenous in egg extract)) (UniProt Q9I9A7); remark: listed apart in the source

Chain of UniProt Q9I9A7 (Q9I9A7 whole entry): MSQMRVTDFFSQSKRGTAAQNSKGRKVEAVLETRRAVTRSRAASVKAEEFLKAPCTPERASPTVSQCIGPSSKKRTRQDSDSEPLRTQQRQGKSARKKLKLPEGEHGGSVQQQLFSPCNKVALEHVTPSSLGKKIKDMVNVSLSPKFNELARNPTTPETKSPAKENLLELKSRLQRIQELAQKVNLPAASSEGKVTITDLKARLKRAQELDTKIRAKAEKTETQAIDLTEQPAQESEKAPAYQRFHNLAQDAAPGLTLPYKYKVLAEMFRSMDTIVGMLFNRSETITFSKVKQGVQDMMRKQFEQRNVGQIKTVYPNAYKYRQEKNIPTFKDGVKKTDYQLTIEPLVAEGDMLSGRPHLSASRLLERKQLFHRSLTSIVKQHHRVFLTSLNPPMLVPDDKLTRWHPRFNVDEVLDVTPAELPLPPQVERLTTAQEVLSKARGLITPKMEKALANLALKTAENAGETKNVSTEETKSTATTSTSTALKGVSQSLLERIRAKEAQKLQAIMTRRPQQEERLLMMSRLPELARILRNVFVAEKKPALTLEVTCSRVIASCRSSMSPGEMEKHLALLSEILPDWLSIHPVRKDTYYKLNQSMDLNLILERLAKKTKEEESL

## endogenous Xenopus geminin (from UniProt O93352 1-219) (natural protein)
[1]
  percent of geminin co-fractionating with Cdt1/RLF-B: 45%
[2]
  percent of geminin co-fractionating with Cdt1/RLF-B: 61%
  percent of geminin in the smaller complex without Cdt1/RLF-B: > 95%
[3]
  percent of geminin co-fractionating with Cdt1/RLF-B: 24%
